# Tested on: CsrA-His6
# Experiment: EMSA
# Details: 10 mM MgCl2; apparent Kd, linear regression (54.7 nM in Fig. S5); 0.5 nM labeled RNA, 0-400 nM CsrA, 10 mM MgCl2, 100 mM KCl, 32.5 ng total yeast RNA, 20 mM DTT, 7.5% glycerol, 4 U SUPERasin, 37 C 30 min; native PAGE in 1X …
substance,measurement,value
hflK leader RNA (-86 to +48),Kd,55 nM

# From article PMC10277598
